Assay results: patent publication US11116820B2, “Treatment of hyperinsulinemic hypoglycemia with exendin-4 derivatives” (priority 2016, dated 2021)

Legend:
mouse GLP-1 receptor [1] = target: T1, mouse GLP-1 receptor (Mus musculus, UniProt O35659); assay: cAMP functional assay (HTRF), antagonist mode, βTC6 cells stimulated with 0.3 nM GLP-1 (7-37); format: cell-based; details: 10 minutes at room temperature
T1 construct: cells that endogenously express the mouse GLP-1 receptor; endogenous in cells; host or cells: βTC6 cells (mouse)
T1 sequence (O35659 22-463): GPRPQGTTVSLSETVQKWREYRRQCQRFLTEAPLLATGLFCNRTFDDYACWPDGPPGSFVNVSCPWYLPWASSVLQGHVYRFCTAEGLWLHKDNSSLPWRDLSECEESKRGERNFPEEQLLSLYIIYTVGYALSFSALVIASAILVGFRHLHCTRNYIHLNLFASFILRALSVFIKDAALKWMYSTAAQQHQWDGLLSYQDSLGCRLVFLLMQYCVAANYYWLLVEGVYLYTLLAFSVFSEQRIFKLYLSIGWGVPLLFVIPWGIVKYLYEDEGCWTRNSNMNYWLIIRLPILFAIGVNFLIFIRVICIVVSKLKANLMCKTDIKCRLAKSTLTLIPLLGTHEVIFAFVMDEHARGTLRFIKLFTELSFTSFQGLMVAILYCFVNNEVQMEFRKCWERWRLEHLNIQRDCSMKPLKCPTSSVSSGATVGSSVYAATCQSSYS
Experimental: (§1) The agonistic and antagonistic effects of each of the four peptides on the receptor GLP-1 was tested in βTC6 cells, which are cells that endogenously express the mouse GLP-1 receptor, in a cAMP functional assay.
Following the incubation period, the resulting intracellular level of cAMP was measured by HTRF.

mouse GLP-1 receptor [2] = target: T1, mouse GLP-1 receptor; assay: cAMP functional assay (HTRF), agonist mode, in βTC6 cells; format: cell-based; details: peptides dissolved at 10 mM in PBS, 10 minutes at room temperature
Experimental: as §1, with “assay. […] Following the incubation period, the resulting intracellular level of cAMP was measured by homogenous time resolved fluorescence (HTRF).” for “assay.”

## pegylated exendin(9-39): pegylated form of exendin(9-39), tested as comparator peptide
Mouse GLP-1 receptor [1]
  antagonistic activity on GLP-1 receptor, overall (in words): did not exhibit significant antagonistic activity
Mouse GLP-1 receptor [2]
  agonistic activity on GLP-1 receptor (intracellular cAMP): None of the four peptides exhibited agonistic activity
